The target of experiment [1] is CD16 on primary human NK cells (human) (UniProt P08637). Description: FACS on human NK cells.
In experiment [2] the target is human CD16a (158V), full length, on cells (human) (UniProt P08637). The experiment can be described thus: cell-based or functional assay.
Experiment [3] addresses cynomolgus monkey CD16, full length, on FlpinCHO cells (cynomolgus monkey) (UniProt Q8SPW2). Description: FACS on FlpinCHO cells.
The target in experiment [4] is human CD16a (158F), full length, on FlpinCHO cells (human) (UniProt P08637). The experiment can be described thus: FACS on FlpinCHO cells.
For experiment [5], the target named is human CD16a (158V), full length, on cells (human) (UniProt P08637). The experiment can be described thus: FACS on FlpinCHO cells.
Experiment [6] has as its target human CD16b (NA1), full length, on FlpinCHO cells (human) (UniProt O75015). The experiment can be described thus: FACS on FlpinCHO cells.
For experiment [7], the target named is human CD16b (NA2), full length, on FlpinCHO cells (human) (UniProt O75015). Description: FACS on FlpinCHO cells.
Experiment [8] has as its target human CD16a (158V), full length, on cells (human) (UniProt P08637). Description: cell-based or functional assay. The source holds these as a separate data set.
For experiment [9] the target is unchanged. Description: FACS, biotinylated antibody. (A flow cytometer gives signals particle by particle.)
For experiment [10] the target is unchanged. Description: FACS, biotinylated antibody, +10 mg/mL human immunoglobulin.

Here are results for one substance from US20240343811A1.

Read-outs that look alike come from different tables or passages of the source.

Sequence of human CD16a (158V), full length, on cells (human) (P08637 17-254 F176V limits assumed): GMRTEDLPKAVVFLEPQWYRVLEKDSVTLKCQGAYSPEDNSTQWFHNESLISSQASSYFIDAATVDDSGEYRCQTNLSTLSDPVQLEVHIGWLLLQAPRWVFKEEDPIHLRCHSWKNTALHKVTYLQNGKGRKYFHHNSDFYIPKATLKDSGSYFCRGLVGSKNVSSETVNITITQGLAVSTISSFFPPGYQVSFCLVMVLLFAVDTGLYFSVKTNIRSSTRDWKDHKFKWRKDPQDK
Sequence of cynomolgus monkey CD16, full length, on FlpinCHO cells (cynomolgus monkey) (Q8SPW2 other isoform, or with tags, fused parts or gaps limits assumed): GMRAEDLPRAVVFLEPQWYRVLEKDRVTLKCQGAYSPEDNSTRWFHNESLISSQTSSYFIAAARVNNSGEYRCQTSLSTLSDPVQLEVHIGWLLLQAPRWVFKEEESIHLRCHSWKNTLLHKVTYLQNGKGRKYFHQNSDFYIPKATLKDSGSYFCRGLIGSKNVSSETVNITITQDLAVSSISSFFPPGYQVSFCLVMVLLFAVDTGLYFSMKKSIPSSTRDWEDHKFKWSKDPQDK
Sequence of human CD16b (NA1), full length, on FlpinCHO cells (human) (O75015 other isoform, or with tags, fused parts or gaps limits assumed): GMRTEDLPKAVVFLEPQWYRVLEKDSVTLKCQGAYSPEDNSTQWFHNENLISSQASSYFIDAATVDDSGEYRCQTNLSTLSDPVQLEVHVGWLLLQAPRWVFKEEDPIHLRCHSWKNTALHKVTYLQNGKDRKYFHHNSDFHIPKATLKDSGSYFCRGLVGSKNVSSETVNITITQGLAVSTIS
Sequence of CD16 on primary human NK cells (human) (P08637 17-254): as the sequence (P08637 17-254 F176V limits assumed) above, with V160F counted along it
Sequence of human CD16a (158F), full length, on FlpinCHO cells (human) (P08637 17-254 limits assumed): as the sequence (P08637 17-254 F176V limits assumed) above, with V160F counted along it
Sequence of human CD16b (NA2), full length, on FlpinCHO cells (human) (O75015 17-200 N65S limits assumed): as the sequence (O75015 other isoform, or with tags, fused parts or gaps limits assumed) above, with R20S, N49S, D66N, V90I counted along it

Consider “NC, negative control antibody scFv-hFc (L234A, L235A and D265A) against chicken egg lysozyme (Fc fusion)”, for which the Maximum mean fluorescence intensity in [1] is 238; in experiment [3], 128; in [4], 216; in experiment [5], 248; in [6], 189; in [7], 447. The Maximum mean fluorescence intensity in experiment [9] was determined as 134; in experiment [10] it was 96. The Maximum fluorescence value in [2] was found to be 2070; in [8] it was 6400. This substance also came in with an EC50, activation activity for Jurkat cell in [8] of 0.019 µM.
